Reference: article PMC9482650, “Quantitative fragmentomics allow affinity mapping of interactomes” (Nature Communications, 2022)
Values belong to the binder of their own block, whether it stands above or below them.

Experiments:
Assay in all cases: holdup assay
Parameters in all cases: key: below the threshold = too weak to quantify, mostly under pKd 3.1 to 4
MAGI2_3, Q86UL8 = target: MAGI2_3, Q86UL8
IL16_3, Q14005 = target: IL16_3, Q14005
NHERF3_1, Q5T2W1 = target: T1, NHERF3_1, Q5T2W1
T1 sequence (Q5T2W1 4-100, limits assumed, looked up): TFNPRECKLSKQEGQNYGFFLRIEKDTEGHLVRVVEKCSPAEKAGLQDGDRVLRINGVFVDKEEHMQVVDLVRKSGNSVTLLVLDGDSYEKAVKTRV

MAGI1_1, Q96QZ7 = target: MAGI1_1, Q96QZ7
PARD3B_1, Q8TEW8 = target: T2, PARD3B_1, Q8TEW8
T2 sequence (Q8TEW8 196-299, limits assumed, looked up): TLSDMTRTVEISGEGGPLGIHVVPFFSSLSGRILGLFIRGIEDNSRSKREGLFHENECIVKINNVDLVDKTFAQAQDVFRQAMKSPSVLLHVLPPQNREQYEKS

CASK, O14936 = target: CASK, O14936
SYNJ2BP, P57105 = target: T3, SYNJ2BP, P57105
T3 sequence (P57105 8-110, limits assumed, looked up): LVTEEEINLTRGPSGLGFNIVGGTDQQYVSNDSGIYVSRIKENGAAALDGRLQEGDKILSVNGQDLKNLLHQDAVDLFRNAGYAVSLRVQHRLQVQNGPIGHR

DLG2_2, Q15700 = target: DLG2_2, Q15700
SNTG1, Q9NSN8 = target: T4, SNTG1, Q9NSN8
T4 sequence (Q9NSN8 52-150, limits assumed, looked up): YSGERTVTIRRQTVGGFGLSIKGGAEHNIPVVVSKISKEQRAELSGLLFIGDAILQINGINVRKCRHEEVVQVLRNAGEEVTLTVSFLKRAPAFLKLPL

FRMPD4, Q14CM0 = target: FRMPD4, Q14CM0
GRIP2_5, Q9C0E4 = target: GRIP2_5, Q9C0E4
GORASP2, Q9H8Y8 = target: GORASP2, Q9H8Y8
FRMPD3, Q5JV73 = target: FRMPD3, Q5JV73
DLG3_2, Q92796 = target: T5, DLG3_2, Q92796
T5 sequence (Q92796 221-321, limits assumed, looked up): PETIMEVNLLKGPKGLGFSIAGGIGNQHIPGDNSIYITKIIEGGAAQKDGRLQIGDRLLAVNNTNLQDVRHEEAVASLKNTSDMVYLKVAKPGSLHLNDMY

MAGI2_6, Q86UL8 = target: MAGI2_6, Q86UL8
Inadl_9, Q8NI35 = target: Inadl_9, Q8NI35
FRMPD2_1, Q68DX3 = target: FRMPD2_1, Q68DX3
TJP3_3, O95049 = target: T6, TJP3_3, O95049
T6 sequence (O95049 375-456, limits assumed, looked up): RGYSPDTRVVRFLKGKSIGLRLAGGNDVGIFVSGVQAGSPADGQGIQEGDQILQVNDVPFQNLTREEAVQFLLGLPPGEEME

NOS1, P29475 = target: NOS1, P29475
DLG2_3, Q15700 = target: DLG2_3, Q15700
LIN7A, O14910 = target: T7, LIN7A, O14910
T7 sequence (O14910 103-200, limits assumed, looked up): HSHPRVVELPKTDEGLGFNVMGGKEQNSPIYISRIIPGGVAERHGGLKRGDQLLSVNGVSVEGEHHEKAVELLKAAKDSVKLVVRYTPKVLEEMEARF

IL16_4, Q14005 = target: IL16_4, Q14005
RADIL, Q96JH8 = target: T8, RADIL, Q96JH8
T8 sequence (Q96JH8 971-1071, limits assumed, looked up): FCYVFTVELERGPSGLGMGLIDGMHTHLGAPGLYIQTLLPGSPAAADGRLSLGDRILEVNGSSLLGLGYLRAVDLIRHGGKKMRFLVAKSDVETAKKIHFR

DFNB31_3, Q9P202 = target: T9, DFNB31_3, Q9P202
T9 sequence (Q9P202 811-907, limits assumed, looked up): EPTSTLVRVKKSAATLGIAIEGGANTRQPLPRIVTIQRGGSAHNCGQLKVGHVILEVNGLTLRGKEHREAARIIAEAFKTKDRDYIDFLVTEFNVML

TX1BP3, O14907 = target: T10, TX1BP3, O14907
T10 sequence (O14907 10-122, limits assumed, looked up): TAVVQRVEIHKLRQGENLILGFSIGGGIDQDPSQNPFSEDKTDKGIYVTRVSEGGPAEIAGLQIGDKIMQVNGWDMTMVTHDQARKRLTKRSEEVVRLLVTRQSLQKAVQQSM

APBA3_1, O96018 = target: T11, APBA3_1, O96018
T11 sequence (O96018 389-490, limits assumed, looked up): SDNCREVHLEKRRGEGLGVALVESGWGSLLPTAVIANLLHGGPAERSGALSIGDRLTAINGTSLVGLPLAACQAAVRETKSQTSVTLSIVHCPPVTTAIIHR

DLG5_1, Q8TDM6 = target: DLG5_1, Q8TDM6
[1] = plain residues with an end cap or a label only (N-terminal biotin on a linker: ado-ado)
[2] = modified: acetyl on K at position -1 from the C-terminal residue
[3] = modified: phospho on S at position -3 from the C-terminal residue

IL16_3, Q14005, sequence (Q14005 1107-1207): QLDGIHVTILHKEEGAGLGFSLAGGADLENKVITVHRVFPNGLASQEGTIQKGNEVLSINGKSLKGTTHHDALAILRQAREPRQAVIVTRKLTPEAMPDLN
Inadl_9, Q8NI35, sequence (Q8NI35 1530-1615): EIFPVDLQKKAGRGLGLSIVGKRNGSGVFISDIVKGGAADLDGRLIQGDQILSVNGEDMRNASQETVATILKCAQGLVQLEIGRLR
MAGI2_3, Q86UL8, sequence (Q86UL8 600-682): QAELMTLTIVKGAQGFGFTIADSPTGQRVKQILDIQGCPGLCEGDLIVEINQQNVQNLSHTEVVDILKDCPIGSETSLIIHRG
FRMPD2_1, Q68DX3, sequence (Q68DX3 770-861): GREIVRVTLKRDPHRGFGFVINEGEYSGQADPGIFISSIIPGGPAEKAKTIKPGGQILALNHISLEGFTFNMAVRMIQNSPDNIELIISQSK
IL16_4, Q14005, sequence (Q14005 1229-1329): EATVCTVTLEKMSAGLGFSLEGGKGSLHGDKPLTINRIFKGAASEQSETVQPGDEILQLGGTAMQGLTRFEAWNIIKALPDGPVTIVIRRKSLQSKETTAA
MAGI1_1, Q96QZ7, sequence (Q96QZ7 1-106): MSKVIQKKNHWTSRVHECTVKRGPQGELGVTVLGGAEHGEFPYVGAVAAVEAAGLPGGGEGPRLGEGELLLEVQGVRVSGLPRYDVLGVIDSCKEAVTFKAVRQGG
MAGI2_6, Q86UL8, sequence (Q86UL8 1141-1229): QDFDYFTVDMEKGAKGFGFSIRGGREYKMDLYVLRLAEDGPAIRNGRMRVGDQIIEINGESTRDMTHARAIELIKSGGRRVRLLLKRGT
DLG5_1, Q8TDM6, sequence (Q8TDM6 617-713): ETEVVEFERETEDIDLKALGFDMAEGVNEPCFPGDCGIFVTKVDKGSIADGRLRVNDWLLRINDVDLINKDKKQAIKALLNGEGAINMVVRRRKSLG
GRIP2_5, Q9C0E4, sequence (Q9C0E4 544-642): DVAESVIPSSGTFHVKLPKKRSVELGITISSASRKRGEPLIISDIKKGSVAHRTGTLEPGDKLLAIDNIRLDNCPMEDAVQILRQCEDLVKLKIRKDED
NOS1, P29475, sequence (P29475 9-101): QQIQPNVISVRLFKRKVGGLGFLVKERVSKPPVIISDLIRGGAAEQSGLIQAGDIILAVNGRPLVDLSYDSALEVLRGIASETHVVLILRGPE
FRMPD4, Q14CM0, sequence (Q14CM0 67-160): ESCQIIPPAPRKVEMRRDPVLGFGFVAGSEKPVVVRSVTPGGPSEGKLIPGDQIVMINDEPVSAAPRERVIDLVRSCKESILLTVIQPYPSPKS
CASK, O14936, sequence (O14936 487-570): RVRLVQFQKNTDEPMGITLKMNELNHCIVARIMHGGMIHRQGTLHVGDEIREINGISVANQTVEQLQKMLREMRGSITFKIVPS
FRMPD3, Q5JV73, sequence (Q5JV73 12-100): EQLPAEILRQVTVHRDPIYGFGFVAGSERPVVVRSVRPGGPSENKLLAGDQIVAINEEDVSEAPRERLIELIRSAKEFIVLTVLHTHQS

pKd (MAGI2_3, Q86UL8; [1]): below the threshold
pKd (IL16_3, Q14005; [1]): 3.5
pKd (NHERF3_1, Q5T2W1; [1]): 4.34
pKd (MAGI1_1, Q96QZ7; [1]): below the threshold
pKd (PARD3B_1, Q8TEW8; [1]): 3.93
pKd (CASK, O14936; [1]): below the threshold
pKd (SYNJ2BP, P57105; [1]): below the threshold
pKd (DLG2_2, Q15700; [1]): 3.62
pKd (SNTG1, Q9NSN8; [1]): 3.5
pKd (FRMPD4, Q14CM0; [1]): 3.67
pKd (GRIP2_5, Q9C0E4; [1]): 3.51
pKd (GORASP2, Q9H8Y8; [1]): 3.51
pKd (FRMPD3, Q5JV73; [1]): below the threshold
pKd (DLG3_2, Q92796; [1]): below the threshold
pKd (MAGI2_6, Q86UL8; [1]): below the threshold
pKd (Inadl_9, Q8NI35; [1]): below the threshold
pKd (FRMPD2_1, Q68DX3; [1]): below the threshold
pKd (TJP3_3, O95049; [1]): below the threshold
pKd (NOS1, P29475; [1]): 3.73
pKd (DLG2_3, Q15700; [1]): 3.52
pKd (LIN7A, O14910; [1]): below the threshold
pKd (IL16_4, Q14005; [1]): 3.69
pKd (RADIL, Q96JH8; [1]): below the threshold
pKd (DFNB31_3, Q9P202; [1]): 4.07
pKd (TX1BP3, O14907; [1]): below the threshold
pKd (APBA3_1, O96018; [1]): below the threshold
pKd (DLG5_1, Q8TDM6; [1]): below the threshold
Binder: TMQMSLKDLL [GLA, P06280]

pKd (MAGI2_3, Q86UL8; [1]): below the threshold
pKd (IL16_3, Q14005; [1]): below the threshold
pKd (NHERF3_1, Q5T2W1; [1]): below the threshold
pKd (MAGI1_1, Q96QZ7; [1]): below the threshold
pKd (PARD3B_1, Q8TEW8; [1]): 3.98
pKd (CASK, O14936; [1]): below the threshold
pKd (SYNJ2BP, P57105; [1]): below the threshold
pKd (DLG2_2, Q15700; [1]): below the threshold
pKd (SNTG1, Q9NSN8; [1]): below the threshold
pKd (FRMPD4, Q14CM0; [1]): below the threshold
pKd (GRIP2_5, Q9C0E4; [1]): below the threshold
pKd (GORASP2, Q9H8Y8; [1]): below the threshold
pKd (FRMPD3, Q5JV73; [1]): below the threshold
pKd (DLG3_2, Q92796; [1]): 4.01
pKd (MAGI2_6, Q86UL8; [1]): below the threshold
pKd (Inadl_9, Q8NI35; [1]): below the threshold
pKd (FRMPD2_1, Q68DX3; [1]): below the threshold
pKd (TJP3_3, O95049; [1]): below the threshold
pKd (NOS1, P29475; [1]): below the threshold
pKd (DLG2_3, Q15700; [1]): below the threshold
pKd (LIN7A, O14910; [1]): below the threshold
pKd (IL16_4, Q14005; [1]): below the threshold
pKd (RADIL, Q96JH8; [1]): below the threshold
pKd (DFNB31_3, Q9P202; [1]): 3.89
pKd (TX1BP3, O14907; [1]): 3.8
pKd (APBA3_1, O96018; [1]): below the threshold
pKd (DLG5_1, Q8TDM6; [1]): below the threshold
Binder: FEEEAEEEVA [TUBB4B, P68371]

pKd (MAGI2_3, Q86UL8; [1]): below the threshold
pKd (IL16_3, Q14005; [1]): below the threshold
pKd (NHERF3_1, Q5T2W1; [1]): below the threshold
pKd (MAGI1_1, Q96QZ7; [1]): below the threshold
pKd (PARD3B_1, Q8TEW8; [1]): 3.84
pKd (CASK, O14936; [1]): below the threshold
pKd (SYNJ2BP, P57105; [1]): below the threshold
pKd (DLG2_2, Q15700; [1]): below the threshold
pKd (SNTG1, Q9NSN8; [1]): below the threshold
pKd (FRMPD4, Q14CM0; [1]): below the threshold
pKd (GRIP2_5, Q9C0E4; [1]): below the threshold
pKd (GORASP2, Q9H8Y8; [1]): below the threshold
pKd (FRMPD3, Q5JV73; [1]): below the threshold
pKd (DLG3_2, Q92796; [1]): below the threshold
pKd (MAGI2_6, Q86UL8; [1]): below the threshold
pKd (Inadl_9, Q8NI35; [1]): below the threshold
pKd (FRMPD2_1, Q68DX3; [1]): below the threshold
pKd (TJP3_3, O95049; [1]): below the threshold
pKd (NOS1, P29475; [1]): below the threshold
pKd (DLG2_3, Q15700; [1]): below the threshold
pKd (LIN7A, O14910; [1]): below the threshold
pKd (IL16_4, Q14005; [1]): below the threshold
pKd (RADIL, Q96JH8; [1]): below the threshold
pKd (DFNB31_3, Q9P202; [1]): 3.96
pKd (TX1BP3, O14907; [1]): below the threshold
pKd (APBA3_1, O96018; [1]): below the threshold
pKd (DLG5_1, Q8TDM6; [1]): below the threshold
Binder: LETREPTNTL [GRIP1, Q9Y3R0]

pKd (MAGI2_3, Q86UL8; [2]): 4.85
pKd (IL16_3, Q14005; [2]): below the threshold
pKd (NHERF3_1, Q5T2W1; [2]): 4.16
pKd (MAGI1_1, Q96QZ7; [2]): below the threshold
pKd (PARD3B_1, Q8TEW8; [2]): below the threshold
pKd (CASK, O14936; [2]): below the threshold
pKd (SYNJ2BP, P57105; [2]): 3.61
pKd (DLG2_2, Q15700; [2]): 4.37
pKd (SNTG1, Q9NSN8; [2]): 4.45
pKd (FRMPD4, Q14CM0; [2]): below the threshold
pKd (GRIP2_5, Q9C0E4; [2]): below the threshold
pKd (GORASP2, Q9H8Y8; [2]): 4.06
pKd (FRMPD3, Q5JV73; [2]): below the threshold
pKd (DLG3_2, Q92796; [2]): 4.56
pKd (MAGI2_6, Q86UL8; [2]): 4.57
pKd (Inadl_9, Q8NI35; [2]): 3.67
pKd (FRMPD2_1, Q68DX3; [2]): below the threshold
pKd (TJP3_3, O95049; [2]): below the threshold
pKd (NOS1, P29475; [2]): 3.81
pKd (DLG2_3, Q15700; [2]): below the threshold
pKd (LIN7A, O14910; [2]): below the threshold
pKd (IL16_4, Q14005; [2]): below the threshold
pKd (RADIL, Q96JH8; [2]): 4.71
pKd (DFNB31_3, Q9P202; [2]): 4.25
pKd (TX1BP3, O14907; [2]): 3.74
pKd (APBA3_1, O96018; [2]): below the threshold
pKd (DLG5_1, Q8TDM6; [2]): below the threshold
Binder: DEDQHTQITKV [PTEN_Ac, P60484]

pKd (MAGI2_3, Q86UL8; [3]): below the threshold
pKd (IL16_3, Q14005; [3]): below the threshold
pKd (NHERF3_1, Q5T2W1; [3]): below the threshold
pKd (MAGI1_1, Q96QZ7; [3]): below the threshold
pKd (PARD3B_1, Q8TEW8; [3]): 4.62
pKd (CASK, O14936; [3]): below the threshold
pKd (SYNJ2BP, P57105; [3]): 4.48
pKd (DLG2_2, Q15700; [3]): below the threshold
pKd (SNTG1, Q9NSN8; [3]): 3.94
pKd (FRMPD4, Q14CM0; [3]): 3.73
pKd (GRIP2_5, Q9C0E4; [3]): below the threshold
pKd (GORASP2, Q9H8Y8; [3]): 3.56
pKd (FRMPD3, Q5JV73; [3]): below the threshold
pKd (DLG3_2, Q92796; [3]): below the threshold
pKd (MAGI2_6, Q86UL8; [3]): below the threshold
pKd (Inadl_9, Q8NI35; [3]): below the threshold
pKd (FRMPD2_1, Q68DX3; [3]): below the threshold
pKd (TJP3_3, O95049; [3]): below the threshold
pKd (NOS1, P29475; [3]): below the threshold
pKd (DLG2_3, Q15700; [3]): below the threshold
pKd (LIN7A, O14910; [3]): below the threshold
pKd (IL16_4, Q14005; [3]): below the threshold
pKd (RADIL, Q96JH8; [3]): below the threshold
pKd (DFNB31_3, Q9P202; [3]): below the threshold
pKd (TX1BP3, O14907; [3]): below the threshold
pKd (APBA3_1, O96018; [3]): below the threshold
pKd (DLG5_1, Q8TDM6; [3]): below the threshold
Binder: RRVRKLPSTTL [RPS6KA1_-3P, Q15418]
